Bridge positions count the residues as written; N and C are the ends. Square brackets hold non-standard residues; d marks the D form. 1Nal = N[C@@H](Cc1cccc2ccccc12)C(=O)O; hArg = N=C(N)NCCCC[C@H](N)C(=O)O; Cit = NC(=O)NCCC[C@H](N)C(=O)O; Aze = O=C(O)[C@@H]1CCN1; Aib = CC(C)(N)C(=O)O
B1: SEQ ID NO 899 (peptide)
peptide: Ac-WVEH[hArg]LKGLLS[Cit]SG[Aze]VVRKNFVPTDVGPFAF-NH2
modifications: lactam 3-7
B2: SEQ ID NO 900 (peptide)
peptide: Ac-[1Nal]VEH[hArg]LKGLLS[Cit]SGGVVRKNFVPTDVGPFAF-NH2
modifications: lactam 3-7
SMILES: CC(=O)N[C@@H](Cc1cccc2ccccc12)C(=O)N[C@H](C(=O)N[C@H]1CCC(=O)NCCCC[C@@H](C(=O)NCC(=O)N[C@@H](CC(C)C)C(=O)N[C@@H](CC(C)C)C(=O)N[C@@H](CO)C(=O)N[C@@H](CCCNC(N)=O)C(=O)N[C@@H](CO)C(=O)NCC(=O)NCC(=O)N[C@H](C(=O)N[C@H](C(=O)N[C@@H](CCCNC(=N)N)C(=O)N[C@@H](CCCCN)C(=O)N[C@@H](CC(N)=O)C(=O)N[C@@H](Cc2ccccc2)C(=O)N[C@H](C(=O)N2CCC[C@H]2C(=O)N[C@H](C(=O)N[C@@H](CC(=O)O)C(=O)N[C@H](C(=O)NCC(=O)N2CCC[C@H]2C(=O)N[C@@H](Cc2ccccc2)C(=O)N[C@@H](C)C(=O)N[C@@H](Cc2ccccc2)C(N)=O)C(C)C)[C@@H](C)O)C(C)C)C(C)C)C(C)C)NC(=O)[C@H](CC(C)C)NC(=O)[C@H](CCCCNC(=N)N)NC(=O)[C@H](Cc2c[nH]cn2)NC1=O)C(C)C
B3: PEG-peptide of SEQ ID NO 904 (peptide)
peptide: Ac-WVEHRLKGLLSQSGGVV[hArg]KNFVPTDVGPFAF-NH2
modifications: lactam 3-7; also: PEG-conjugated, in most cases at Lys25
B4: SEQ ID NO 901 (peptide)
peptide: WVEHRLKGELSRKGGVVXKNFVPTDVGPFAF
modifications: Ac-WVEHRLKGELSRKGGVV[hArg]KNFVPTDVGPFAF-NH2
B5: SEQ ID NO 902 (peptide)
peptide: WVEHRLKGELSXKGGVVXKNFVPTDVGPFAF
modifications: Ac-WVEHRLKGELS[Cit]KGGVV[hArg]KNFVPTDVGPFAF-NH2
B6: SEQ ID NO 905 (peptide)
peptide: Ac-WVEHRLKGLLS[hArg]SGGVV[hArg]KNFVPTDVGPFAF-NH2
modifications: lactam 3-7
B7: PEG-peptide of SEQ ID NO 905 (peptide)
peptide: Ac-WVEHRLKGLLS[hArg]SGGVV[hArg]KNFVPTDVGPFAF-NH2
modifications: lactam 3-7; also: PEG-conjugated, in most cases at Lys25
B8: SEQ ID NO 903 (peptide)
peptide: Ac-WVTHRLEGLLKQSGGVV[hArg]KNFVPTDVGPFAF-NH2
SMILES: CC(=O)N[C@@H](Cc1c[nH]c2ccccc12)C(=O)N[C@H](C(=O)N[C@H](C(=O)N[C@@H](Cc1c[nH]cn1)C(=O)N[C@@H](CCCNC(=N)N)C(=O)N[C@@H](CC(C)C)C(=O)N[C@@H](CCC(=O)O)C(=O)NCC(=O)N[C@@H](CC(C)C)C(=O)N[C@@H](CC(C)C)C(=O)N[C@@H](CCCCN)C(=O)N[C@@H](CCC(N)=O)C(=O)N[C@@H](CO)C(=O)NCC(=O)NCC(=O)N[C@H](C(=O)N[C@H](C(=O)N[C@@H](CCCCNC(=N)N)C(=O)N[C@@H](CCCCN)C(=O)N[C@@H](CC(N)=O)C(=O)N[C@@H](Cc1ccccc1)C(=O)N[C@H](C(=O)N1CCC[C@H]1C(=O)N[C@H](C(=O)N[C@@H](CC(=O)O)C(=O)N[C@H](C(=O)NCC(=O)N1CCC[C@H]1C(=O)N[C@@H](Cc1ccccc1)C(=O)N[C@@H](C)C(=O)N[C@@H](Cc1ccccc1)C(N)=O)C(C)C)[C@@H](C)O)C(C)C)C(C)C)C(C)C)[C@@H](C)O)C(C)C
B9: PEG-peptide of SEQ ID NO 898 (peptide)
peptide: Ac-[Aib]WVEH[hArg]LKGLLS[Cit]SGGVVRKNFVPTDVGPFAF-NH2
modifications: lactam 4-8; also: PEG-conjugated, in most cases at Lys25
B10: SEQ ID NO 904 (peptide)
peptide: Ac-WVEHRLKGLLSQSGGVV[hArg]KNFVPTDVGPFAF-NH2
modifications: lactam 3-7

The binders below were run against CGRP1 receptor (CRLR/RAMP1 complex) of human neuroblastoma SK-N-MC cells (human, UniProt Q16602 23-461; O60894 27-148) (assay: cell-based or functional assay).
CGRP1 receptor (CRLR/RAMP1 complex) of human neuroblastoma SK-N-MC cells, sequence (Q16602 23-461, chain 1 of 2): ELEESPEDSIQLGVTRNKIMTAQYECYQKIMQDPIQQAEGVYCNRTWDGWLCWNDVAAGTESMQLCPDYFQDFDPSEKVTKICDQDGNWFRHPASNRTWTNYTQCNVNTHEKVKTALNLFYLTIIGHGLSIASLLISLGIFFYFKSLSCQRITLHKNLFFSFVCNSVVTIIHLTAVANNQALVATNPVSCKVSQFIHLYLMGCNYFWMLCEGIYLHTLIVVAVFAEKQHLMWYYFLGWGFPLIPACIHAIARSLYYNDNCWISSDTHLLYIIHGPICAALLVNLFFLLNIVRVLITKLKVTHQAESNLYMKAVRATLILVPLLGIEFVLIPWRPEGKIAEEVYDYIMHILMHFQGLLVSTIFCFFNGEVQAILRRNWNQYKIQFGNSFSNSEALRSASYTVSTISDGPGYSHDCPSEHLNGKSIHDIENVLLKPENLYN
CGRP1 receptor (CRLR/RAMP1 complex) of human neuroblastoma SK-N-MC cells, sequence (O60894 27-148, chain 2 of 2): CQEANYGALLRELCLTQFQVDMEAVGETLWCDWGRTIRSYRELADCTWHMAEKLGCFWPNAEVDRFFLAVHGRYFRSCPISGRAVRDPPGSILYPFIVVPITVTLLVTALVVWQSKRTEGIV
B1 was tested, and the “Peptide IC50” value was 1.62 nM.
For B2, the “Peptide IC50” value was 2.43 nM.
B3 was tested, and the “PEG-peptide IC50” value was 6.73 nM.
In the case of B4, the “Peptide IC50” value is reported as 1.02 nM.
With B5 the “Peptide IC50” value was 0.49 nM.
In the case of B6, the “Peptide IC50” value is reported as 1.7 nM.
With B7 the “PEG-peptide IC50” value was 3.7 nM.
With B8 the “Peptide IC50” value was 3.5 nM.
With B9 the “PEG-peptide IC50” value was 40.7 nM.
B10 was tested, and the “Peptide IC50” value was 2.03 nM.
